T1: human IL-17 (human, UniProt Q16552 20-155, limits assumed)
T1 sequence: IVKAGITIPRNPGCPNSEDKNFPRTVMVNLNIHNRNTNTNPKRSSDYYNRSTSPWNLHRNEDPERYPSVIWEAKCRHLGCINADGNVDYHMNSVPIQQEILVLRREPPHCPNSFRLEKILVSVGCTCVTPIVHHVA

T2: mouse IL-17 (murine, UniProt Q62386 26-158, limits assumed)
T2 construct: also called murine IL-17
T2 sequence: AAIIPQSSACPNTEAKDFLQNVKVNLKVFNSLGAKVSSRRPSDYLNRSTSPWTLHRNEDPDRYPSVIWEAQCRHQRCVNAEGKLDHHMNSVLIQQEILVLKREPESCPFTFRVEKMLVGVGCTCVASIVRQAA

T3: human IL-22 (human, UniProt Q9GZX6 34-179)
T3 construct: Negative control antigen
T3 sequence (looked up): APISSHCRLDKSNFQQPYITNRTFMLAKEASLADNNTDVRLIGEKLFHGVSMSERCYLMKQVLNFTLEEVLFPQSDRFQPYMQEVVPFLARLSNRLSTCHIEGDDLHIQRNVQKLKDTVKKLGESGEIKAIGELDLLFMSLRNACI

T4: human IL-17D (human, UniProt Q8TAD2 18-202, limits assumed)
T4 sequence (looked up): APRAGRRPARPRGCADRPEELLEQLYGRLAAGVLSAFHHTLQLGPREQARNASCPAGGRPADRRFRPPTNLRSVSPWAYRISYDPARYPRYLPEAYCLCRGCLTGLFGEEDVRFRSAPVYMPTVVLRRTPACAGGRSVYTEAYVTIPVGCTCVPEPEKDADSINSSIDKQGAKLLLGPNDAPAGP

T5: human IL-17F (human, UniProt Q96PD4 31-163)
T5 sequence (looked up): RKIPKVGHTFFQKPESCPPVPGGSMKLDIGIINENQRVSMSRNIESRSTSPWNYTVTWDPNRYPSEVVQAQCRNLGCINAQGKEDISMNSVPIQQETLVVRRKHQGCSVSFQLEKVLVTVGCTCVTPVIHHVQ

T6: human IL-17C (human, UniProt Q9P0M4 19-197)
T6 sequence (looked up): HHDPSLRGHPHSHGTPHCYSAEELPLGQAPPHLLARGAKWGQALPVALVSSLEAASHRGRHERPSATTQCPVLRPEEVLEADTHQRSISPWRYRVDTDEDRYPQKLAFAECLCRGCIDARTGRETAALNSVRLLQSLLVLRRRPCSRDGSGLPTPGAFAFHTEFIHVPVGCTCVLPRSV

T7: human IL-17E (human, UniProt Q9H293 33-177)
T7 sequence (looked up): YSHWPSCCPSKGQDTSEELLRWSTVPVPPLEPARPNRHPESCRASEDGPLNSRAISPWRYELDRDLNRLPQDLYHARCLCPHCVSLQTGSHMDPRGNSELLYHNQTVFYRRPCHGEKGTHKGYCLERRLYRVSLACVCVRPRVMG

T8: human IL-17B (human, UniProt Q9UHF5 21-180)
T8 sequence (looked up): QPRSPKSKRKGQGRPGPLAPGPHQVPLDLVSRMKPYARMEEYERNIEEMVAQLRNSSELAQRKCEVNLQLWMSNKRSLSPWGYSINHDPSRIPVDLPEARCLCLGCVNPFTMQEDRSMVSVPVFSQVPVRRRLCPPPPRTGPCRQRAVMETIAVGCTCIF

T9: cynomolgus monkey IL-17 (cynomolgus monkey, UniProt Q16552 24-155 (human entry), limits assumed)
T9 construct: Not commercially available; cloned and expressed; also called CYNO IL-17
T9 chain: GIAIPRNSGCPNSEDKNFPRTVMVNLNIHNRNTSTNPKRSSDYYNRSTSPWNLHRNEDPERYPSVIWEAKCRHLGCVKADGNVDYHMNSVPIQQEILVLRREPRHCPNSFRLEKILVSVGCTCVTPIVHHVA


Legend:
human IL-17 [1] = target: T1, human IL-17; assay: cell-based or functional assay
mouse IL-17 = target: T2, mouse IL-17; assay: ELISA, antigen coated on plate
Procedure: (§1) In an exemplary assay, ELISA plate wells (Nunc Immuno Maxisorp) are coated with 100 μl (0.5 ng/ml in 1× coating buffer (BioFx)) of IL-17 family member proteins (R&D Systems) sealed and incubated overnight at 4° C. The solution in the well is removed by flicking and blocking buffer (200 μl 1.5% BSA in PBS) is added. The plates are incubated on a rotating shaker for 30 minutes at room temperature. Then 100 μl of an antibody to be tested is added per well at varying concentrations (e.g., 2, 0.4, 0.08, 0.016, 0.0032 and 0 μg/ml). The plates are again incubated overnight (4° C.) followed by warming on a rotating shaker (60 min room temp). Each plate-well is then washed five times with buffer (1× Ish buffer, BioFX). After washing, an appropriate commercially available HRP-conjugated secondary antibody (1:2000 in PBS with 1.5% BSA) is added (100 μl/well). Plates are re-incubated on a rotating shaker (60 min. room temp.) followed by buffer washing (5×) as described above. The colorimetric signal is developed by adding TMB (100 μl/well) until saturation (approx 3-5 min.) then further development is ended by adding stop solution (100 μl/well, BioFX). The color signal is measured at 450 nm absorbance using any appropriate ELISA plate reader. The degree of binding is proportional to color signal production.

human IL-22 = target: T3, human IL-22; assay: ELISA, antigen coated on plate
Procedure: as §1

human IL-17D = target: T4, human IL-17D; assay: ELISA, antigen coated on plate
Procedure: as §1

human IL-17F = target: T5, human IL-17F; assay: ELISA, antigen coated on plate
Procedure: as §1

human IL-17C = target: T6, human IL-17C; assay: ELISA, antigen coated on plate
Procedure: as §1

human IL-17E = target: T7, human IL-17E; assay: ELISA, antigen coated on plate
Procedure: as §1

human IL-17B = target: T8, human IL-17B; assay: ELISA, antigen coated on plate
Procedure: as §1

human IL-17 [2] = target: T1, human IL-17; assay: SPR (BIACORE 2000), mAb captured on Protein A, IL-17 injected, 25 C, 1:1 with mass transfer model;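 further: CM4 chip with immobilized Protein A, HBS-EP running buffer pH 7.4, IL-17 titrated downward from 10 nM in twofold steps, 20 min dissociation phase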
Procedure: (§2) A BIACORE® 2000 instrument is used to measure antigen-antibody binding kinetics and affinity. The instrument utilizes the optical properties of surface plasmon resonance to detect alteration in protein concentration of interacting molecules within a dextran biosensor matrix. Except as noted, all reagents and materials are purchased from BIACORE® AB. All measurements are performed at 25° C. Samples are resuspended in HBS-EP buffer to a final concentration of 2 μg/ml (150 mM sodium chloride, 3 mM EDTA, 0.005% (w/v) surfactant P-20, and 10 mM HEPES, pH 7.4). Protein A is immobilized on flow cells 1 to 4 of a CM4 sensor chip at a level of 500 response units using an amine coupling kit.
(§3) Binding is evaluated using multiple analytical cycles. […] Association and dissociation rates for each cycle are evaluated using a “1:1 with mass transfer” binding model in the BIAevaluation software.

cynomolgus monkey IL-17 = target: T9, cynomolgus monkey IL-17; assay: as above
Procedure: as §2, §3

[3] = target: New Zealand white rabbit IL-17 (rabbit); assay: SPR (BIACORE 2000), mAb captured on Protein A; biphasic, heterogeneous ligand model, second of two affinities
Chain of New Zealand white rabbit IL-17 (rabbit) (chain, as listed by the source limits assumed, form in doubt): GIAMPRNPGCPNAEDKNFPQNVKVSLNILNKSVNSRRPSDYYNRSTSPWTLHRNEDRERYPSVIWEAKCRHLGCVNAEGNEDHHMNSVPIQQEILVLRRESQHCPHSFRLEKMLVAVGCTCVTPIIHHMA

[4] = target: New Zealand white rabbit IL-17 (rabbit); assay: SPR (BIACORE 2000), mAb captured on Protein A; biphasic, heterogeneous ligand model, first of two affinities

Molecule | Kd (human IL-17 [2]) [pM] | koff (human IL-17 [2]) [s⁻¹] | kon (human IL-17 [2]) [M⁻¹ s⁻¹] | Kd (cynomolgus monkey IL-17) [pM] | koff (cynomolgus monkey IL-17) [s⁻¹] | kon (cynomolgus monkey IL-17) [M⁻¹ s⁻¹] | Kd [3] [pM] | koff [3] [s⁻¹] | kon [3] [M⁻¹ s⁻¹] | Kd [4] [pM] | koff [4] [s⁻¹] | kon [4] [M⁻¹ s⁻¹] | other results
IgG4 negative control (antibody) |  |  |  |  |  |  |  |  |  |  |  |  | AVG GROα, pg/ml at 2.56 pM antibody (60 ng/ml IL-17, HT-29 cells) (human IL-17 [1]): 1240 pg/ml; AVG GROα, pg/ml at 12.8 pM antibody (60 ng/ml IL-17, HT-29 cells) (human IL-17 [1]): 1350 pg/ml; AVG GROα, pg/ml at 64.0 pM antibody (60 ng/ml IL-17, HT-29 cells) (human IL-17 [1]): 1380 pg/ml; AVG GROα, pg/ml at 320.0 pM antibody (60 ng/ml IL-17, HT-29 cells) (human IL-17 [1]): 1390 pg/ml; AVG GROα, pg/ml at 1,600.0 pM antibody (60 ng/ml IL-17, HT-29 cells) (human IL-17 [1]): 1370 pg/ml; AVG GROα, pg/ml at 8,000.0 pM antibody (60 ng/ml IL-17, HT-29 cells) (human IL-17 [1]): 1420 pg/ml; AVG GROα, pg/ml at 40,000.0 pM antibody (60 ng/ml IL-17, HT-29 cells) (human IL-17 [1]): 1300 pg/ml
Fab 121 (Fab, V domains shown, constant domains are not specified) VH: QVQLVQSGAEVKKPGSSVKVSCKASGYSFTDYHISWVRQAPGQGLEWMGVINPEYGTTDYNQRFKGRVTITADESTSTAYMELSSLRSEDTAVYYCARYDYFTGTGAYWGQGTLVTVSS VL: DIVMTQTPLSLSVTPGQPASISCRSSQSLKHSRGNTFLHWYLQKPGQSPQLLIYKVSNRFIGVPDRFSGSGSGTDFTLKISRVEAEDVGVYYCSQSTHYPFTFGQGTKLEIK |  |  |  |  |  |  |  |  |  |  |  |  | binding result (mouse IL-17): no binding; binding result (human IL-22): no binding; binding result (human IL-17D): no binding; binding result (human IL-17F): no binding; binding result (human IL-17C): no binding; binding result (human IL-17E): no binding; binding result (human IL-17B): no binding
mAb 131 (full-length, IgG4 Fc region) (antibody, V domains shown) VH: QVQLVQSGAEVKKPGSSVKVSCKASGYSFTDYHIHWVRQAPGQGLEWMGVINPEYGTTDYNQRFKGRVTITADESTSTAYMELSSLRSEDTAVYYCARYDYFTGTGVYWGQGTLVTVSS VL: DIVMTQTPLSLSVTPGQPASISCRSSKSLVHSRGNTYLHWYLQKPGQSPQLLIYKVSNRFIGVPDRFSGSGSGTDFTLKISRVEAEDVGVYYCSQSTHYPFTFGQGTKLEIK | 2.9 | 1.6e-05 | 5.4e+06 |  |  |  |  |  |  |  |  |  | 
mAb 104 (full-length, IgG4 Fc region) (antibody, V domains shown, also called full-length mAb 104) VH: QVQLVQSGAEVKKPGSSVKVSCKASGYSFTDYHIHWVRQAPGQGLEWMGVINPEYGTTDYNQRFKGRVTITADESTSTAYMELSSLRSEDTAVYYCARYDYFTGTGAYWGQGTLVTVSS VL: DIVMTQTPLSLSVTPGQPASISCRSSKSLVHSRGNTFLHWYLQKPGQSPQLLIYKVSTRFSGVPDRFSGSGSGTDFTLKISRVEAEDVGVYYCSQSTHYPFTFGQGTKLEIK | 1.7 | 1.1e-05 | 7.7e+06 | 0.5 | 5e-06 | 9.4e+06 | 20000 | 0.07 | 4e+06 | 1900 | 0.00018 | 100000 | 
Fab 126 (Fab, V domains shown, constant domains are not specified) VH: QVQLVQSGAEVKKPGSSVKVSCKASGYSFTDYHIHWVRQAPGQGLEWMGVINPMYGTTDYNQRFKGRVTITADESTSTAYMELSSLRSEDTAVYYCARYDYFTGTGVYWGQGTLVTVSS VL: DIVMTQTPLSLSVTPGQPASISCRSSRSLVHSRGNTYLHWYLQKPGQSPQLLIYKVSNRFIGVPDRFSGSGSGTDFTLKISRVEAEDVGVYYCSQSTHLPFTFGQGTKLEIK |  |  |  |  |  |  |  |  |  |  |  |  | binding result (mouse IL-17): no binding; binding result (human IL-22): no binding; binding result (human IL-17D): no binding; binding result (human IL-17C): no binding; binding result (human IL-17E): no binding; binding result (human IL-17B): no binding
mAb 126 (full-length, IgG4 Fc region) (antibody, V domains shown, Full-length mAb with an IgG4 Fc region) VH: QVQLVQSGAEVKKPGSSVKVSCKASGYSFTDYHIHWVRQAPGQGLEWMGVINPMYGTTDYNQRFKGRVTITADESTSTAYMELSSLRSEDTAVYYCARYDYFTGTGVYWGQGTLVTVSS VL: DIVMTQTPLSLSVTPGQPASISCRSSRSLVHSRGNTYLHWYLQKPGQSPQLLIYKVSNRFIGVPDRFSGSGSGTDFTLKISRVEAEDVGVYYCSQSTHLPFTFGQGTKLEIK |  |  |  | 0.8 |  |  |  |  |  |  |  |  | IC50, IL-17-induced GROα secretion from HT-29 cells (human IL-17 [1]): ~560 pM
mAb 103 (full-length, IgG4 Fc region) (antibody, V domains shown, also called full-length mAb 103) VH: QVQLVQSGAEVKKPGSSVKVSCKASGYSFTDYHIHWVRQAPGQGLEWMGVINPEYGTTDYNQRFKGRVTITADESTSTAYMELSSLRSEDTAVYYCARYDYFTGTGAYWGQGTLVTVSS VL: DIVMTQTPLSLSVTPGQPASISCRSSQSLRHSRGNTYLHWYLQKPGQSPQLLIYKVSNIFSGVPDRFSGSGSGTDFTLKISRVEAEDVGVYYCSQSTHYPFTFGQGTKLEIK | 1.4 | 1.5e-05 | 1.1e+07 | 1.3 | 1.1e-05 | 8.8e+06 | 18100 | 0.192 | 1.06e+07 | 2000 | 0.00036 | 180000 | 
mAb 118 (full-length, IgG4 Fc region) (antibody, V domains shown) VH: QVQLVQSGAEVKKPGSSVKVSCKASGYSFTDYHISWVRQAPGQGLEWMGVINPMYGTTDYNQRFKGRVTITADESTSTAYMELSSLRSEDTAVYYCARYDYYTGTGVYWGQGTLVTVSS VL: DIVMTQTPLSLSVTPGQPASISCRSSQSLVHSRGNTFLHWYLQKPGQSPQLLIYKVSNRFIGVPDRFSGSGSGTDFTLKISRVEAEDVGVYYCSQSTHYPFTFGQGTKLEIK | 3.9 | 2e-05 | 5e+06 |  |  |  |  |  |  |  |  |  | 
mAb 121 (full-length, IgG4 Fc region) (antibody, V domains shown, Full-length mAb with an IgG4 Fc region) VH: QVQLVQSGAEVKKPGSSVKVSCKASGYSFTDYHISWVRQAPGQGLEWMGVINPEYGTTDYNQRFKGRVTITADESTSTAYMELSSLRSEDTAVYYCARYDYFTGTGAYWGQGTLVTVSS VL: DIVMTQTPLSLSVTPGQPASISCRSSQSLKHSRGNTFLHWYLQKPGQSPQLLIYKVSNRFIGVPDRFSGSGSGTDFTLKISRVEAEDVGVYYCSQSTHYPFTFGQGTKLEIK | 1.6 | 1.5e-05 | 1e+07 | 1.1 | 7e-06 | 7.8e+06 | 1500 | 0.021 | 1.7e+07 | 510 | 0.0004 | 800000 | decrease of the mean mouse KC level after human IL-17 injection in mice, 20 µg/mouse, compared to a control antibody (human IL-17 [1]): ~3 fold
